No end group written: not given here.

Assay [1] has as its target T1, FPRL1 (Homo sapiens, UniProt P25090).
T1 sequence (P25090 1-351): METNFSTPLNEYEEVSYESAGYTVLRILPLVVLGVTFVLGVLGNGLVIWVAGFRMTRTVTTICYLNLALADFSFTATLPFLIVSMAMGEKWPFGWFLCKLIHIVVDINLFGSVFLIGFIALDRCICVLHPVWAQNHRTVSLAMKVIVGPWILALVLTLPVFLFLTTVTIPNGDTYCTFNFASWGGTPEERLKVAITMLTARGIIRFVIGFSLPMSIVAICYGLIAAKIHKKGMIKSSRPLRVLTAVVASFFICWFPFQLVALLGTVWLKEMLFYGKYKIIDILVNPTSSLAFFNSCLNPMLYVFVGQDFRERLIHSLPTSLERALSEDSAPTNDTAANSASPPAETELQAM
As to the kind of experiment: Calcium flux in CHO-K1 cells co-transfected with FPRL1 and Gα16. It is filed as cell-based. More on the design: expressed in transfected cells; host or cells: CHO-K1 (ATCC-CCL-61), transient co-transfection. The settings on record: for ability to induce calcium flux, P33-derived peptides: 0.1, 1, 10, 100, 1000, 10000 nM; for calcium flux, P58 and derivatives: dose response. As to the method: (§1) The assay was carried out in CHO cells were transiently transfected with the GPCR of choice, by utilizing the promiscuous Gα16 to divert signaling to the Gq pathway, thus enabling readout of GPCR activation by testing for Calcium flux as described by Liu et al 2003 (Biomol Screen 8, 39-49).
(§2) All the peptides thus obtained were tested for their ability to change calcium flux in CHO—K1 cells (ATCC-CCL-61) transiently co-transfected with an expression vector containing the GPCR of choice and expression vector containing the Gα16 encoding cDNA. Expression constructs containing cDNA clones for MrgX1, MrgX2, Mas or FPRL1 were commercially obtained in one of the following expression vectors: pcDNA3.1, pCMV6, or MO2.
(§3) Transient transfections were performed using CHO—K1 cells as host cells. Cells (12 million) were plated into T75 flasks on the day preceding transfection. Cells were transfected with the appropriate GPCR expression vector and with a vector expressing Gα16 using a lipid-based reagent, MTI, according to the manufacturer's recommendation. Cells were transfected for 5 hours, then re-plated into 96-well dishes (60,000 cells per well) and grown overnight.
(§4) On the day of the experiment, cells were loaded with Fluo4-NW (Invitrogen) according to the manufacturer's recommendation. Plates were loaded into a FlexStation™ (Molecular Devices) plate reader and fluorescence was monitored. Seventeen seconds following initiation of reading, cells were stimulated with the indicated agonist/compound at final concentration of 1 μM. Each 96 well plate contained cells transfected with one GPCR expression vector and each of the examined peptides was tested in triplicate.
(§5) We defined a hit as a peptide which elicited a clear and distinct increase in intracellular calcium that is clearly visible and statistically significant upon examination of the calcium trace for at least two repeats. The criterion for statistical significance was a p-value lower than 0.001 in a t-test comparing the levels of calcium before and after peptide addition.
(§6) Based on dose response experiments, EC50 best fit values were calculated by non-linear regression of sigmoidal dose-response curves, using Prism version 4 (GraphPad Software Inc., San Diego, Calif.). The formulae for the sigmoidal dose-response curves was defined as Y=Bottom+(Top−Bottom)/(1+10^ (LogEC50−X)*HillSlope))
The ability of Peptides to change calcium flux was examined in CHO—K1 cells co-transfected with FPRL1 and Gal 6.
(Calcium assays in cells follow changes in intracellular calcium, usually with a dye or a luminescent sensor.)

In assay [2] the target is T2, Mas receptor (Homo sapiens, UniProt P04201).
T2 construct: expressed in transfected cells; host or cells: CHO-K1 (ATCC-CCL-61), transient co-transfection
T2 sequence (P04201 1-325): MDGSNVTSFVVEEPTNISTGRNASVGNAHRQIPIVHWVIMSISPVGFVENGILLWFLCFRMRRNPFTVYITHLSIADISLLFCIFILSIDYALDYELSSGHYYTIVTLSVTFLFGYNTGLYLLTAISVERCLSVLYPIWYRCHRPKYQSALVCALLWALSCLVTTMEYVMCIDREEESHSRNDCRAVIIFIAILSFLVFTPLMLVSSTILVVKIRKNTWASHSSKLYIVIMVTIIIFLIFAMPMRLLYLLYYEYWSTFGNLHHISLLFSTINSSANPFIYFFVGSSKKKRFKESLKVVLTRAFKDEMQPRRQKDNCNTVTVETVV
Nature of the assay: Calcium flux in CHO-K1 cells co-transfected with Mas receptor and Gα16. The settings on record: for ability to induce calcium flux, P33 monomer, dimer and derivatives compared: 0.1, 1, 10, 100, 1000 and 10000 nM; for ability to induce calcium flux, P61-related peptides compared: dose response; for EC50: doses 10-3000 nM, highest response not reached. It is filed as cell-based. On the procedure:
as §1, §2, §3, §4, §5, §6
The ability of Peptides to change calcium flux was examined in CHO—K1 cells co-transfected with Mas receptor and Gα16.

Assay [3] concerns aortic rings from Wistar rat. As to the kind of experiment: Vasorelaxant activity in phenylephrine pre-contracted aortic rings. The settings on record: for vasodilator effect in the presence of L-NAME: 100 μM L-NAME, NO synthase inhibitor; for vasodilator effect in the absence of functional endothelium: endothelium-denuded vessels; for Maximal values for the relaxant effect (Emax): mean±SEM. The text has this:
Male Wistar rats of the age of 13-14 weeks (body weight: 250 to 300 g) were used. The rats were exposed to light-dark cycle of 12 hs (day—06:00 to 18:00; night—18:00 to 06:00) controlled by timer. Rats were killed by decapitation and exsanguination and tissues were rapidly removed.
Rings (3-4 mm) from the descending thoracic aorta, free of adipose and connective tissue, were set up in gassed (95% O2 and 5% CO2) Krebs-Henseleit solution (mmol/L): NaCl 110.8, KCl 5.9, NaHCO3 25.0, MgSO4 1.07, CaCl2 2.49, NaH2PO4 2.33 and glucose 11.51, at 37° C., under a tension of 1.0 g, for 1 hour to equilibrate. The presence of functional endothelium was assessed by the ability of Acetylcholine (1 μM) to induce more than 70% relaxation of vessels pre-contracted with phenylephrine (0.3 μM) (Lemos et al., 2005). When necessary, the endothelium was removed by rubbing the intimal surface with a wooden stick. Mechanical activity, recorded isometrically by a force transducer (Panlab, model number TR1210, Spain), was fed to an amplifier-recorder (Powerlab 4/20, ADInstruments, Inc.) and to a personal computer equipped with an analogue-to-digital converter board (AD16JR; World Precision Instruments, Inc.), using CVMS data acquisition/recording software (World Precision Instruments, Inc.).
The vasorelaxant activity of peptides —P61_S (SEQ ID NO:10), P61 (SEQ ID NO.9)-dimer (P61_D), P33_V (SEQ ID NO:7) and P33 (SEQ ID NO:6)-dimer (P33_D) were measured in vessels (N=5-8) with or without functional endothelium pre-contracted to the same tension level (approximately 1.5 g of tension) induced by submaximal concentrations of phenylephrine (0.01 μM). For comparison, the effect of Ang-(1-7) was also tested (N=4)
P61_S (SEQ ID NO:10), P61 (SEQ ID NO9)-dimer (P61_D), P33_V (SEQ ID NO:7) or P33 (SEQ ID NO:6)-dimer (P33_D) were added in increasing cumulative concentrations (0.0001 to 1 μM) once the response to phenylephrine had stabilized (FIG. 28). In order to verify the participation of endothelium-derived products in the relaxant effect of peptides, experiments were performed in the presence of 100 μM N′-Nitro-L-Arginine Methyl Ester-[L-NAME]—a nonselective inhibitor of nitric oxide synthase. In experiments performed in the presence of L-NAME, vessels were pre-contracted with 0.03 μM of phenylephrine, to achieve the same tension level as the others. L-NAME was added to the bath 20 min prior to the addition of phenylephrine.
Results are presented as mean±SEM. Two-way analysis of variance (ANOVA) with Bonferroni multiple comparison post-test was used to compare concentration response curves obtained in aortic rings. The vasodilator effect of P61_S (SEQ ID NO:10), P61 (SEQ ID N09)-dimer (P61_D), P33_V (SEQ ID NO:7), P33 (SEQ ID NO:6)-dimer (P33_D) and Ang-(1-7) were expressed as percentage decrease in maximal contraction induced by phenylephrine. All statistical analyses were considered significant when p<0.05.

Setting [4] is: vessels with endothelium, 0.0001 to 1 μM cumulative.

Turning to “AVLFPAAHRP (listed as Homo sapiens) [P33—5]”, the “ability to induce calcium flux, P33-derived peptides” value in assay [1] was “failed to induce calcium flux”. For the same substance, the “ability to induce calcium flux, P33 monomer, dimer and derivatives compared” value in assay [2] is “no activity”. For “Angiotensin 1-7 [Ang-(1-7), reference compound]”, the “vasodilator effect in the presence of L-NAME” value in assay [3] is listed as “completely inhibited”. Moreover, the “vasodilator effect in the absence of functional endothelium” value in assay [3] was “abolished”. Moreover, the “Maximal values for the relaxant effect (Emax)” value was determined as 15.64±1.91% in assay [3] (setting [4]) and 2.82±3.11% in assay [3] (vessels without endothelium). Besides, in assay [2] (dose response experiment, data not shown), the Ca response entry is recorded as “did not induce Ca response”. As to “FAFLGYSIYLNRKRRGDPAF (listed as Homo sapiens) [P61—11S]”, the “ability to induce calcium flux, P61-related peptides compared” value in assay [2] is on record as “as potent as P61_S”. As for “FLGYSIYLNRKRRGDPAFKRRLRD [Peptide P61_S]”, the EC50 – broadly, the concentration that produces a half-maximal response – in assay [2] is no less than 500 nM. In the case of “HRWSRAVLFPAAHRP (listed as Homo sapiens) [P33—9]”, the “ability to induce calcium flux, P33-derived peptides” value in assay [1] was “failed to induce calcium flux”. For the same substance, the “ability to induce calcium flux, P33 monomer, dimer and derivatives compared” value in assay [2] is “induced calcium flux, albeit at a somewhat lower degree compared to P33_V”. As for “IYLNRKRRGDPAFKRRLRD (listed as Homo sapiens) [P61—4]”, the “ability to induce calcium flux, P61-related peptides compared” value in assay [2] is “somewhat weaker”.

In the case of “RWSRAVLFPAAHRP (listed as Homo sapiens) [P33—8]”, the “ability to induce calcium flux, P33-derived peptides” value in assay [1] is reported as “failed to induce calcium flux”. For the same substance, the “ability to induce calcium flux, P33 monomer, dimer and derivatives compared” value in assay [2] was “induced calcium flux, albeit at a somewhat lower degree compared to P33_V”.

“SMCHRWSRAVLFPAAHRP [P33_dimer] (also: dimer via cysteine; listed as Homo sapiens) [Peptide P33_dimer]”: the “ability to induce calcium flux, P33-derived peptides” value in assay [1] was “inactive”. In assay [3], the “vasodilator effect in the presence of L-NAME” value was “completely inhibited” and the “vasodilator effect in the absence of functional endothelium” value is “completely inhibited”. In addition, the “Maximal values for the relaxant effect (Emax)” value in assay [3] (setting [4]) is 17.78±3.43%. The “ability to induce calcium flux, P33 monomer, dimer and derivatives compared” value in assay [2] was “superior to the monomeric peptides”. Consider SMCHRWSRAVLFPAAHRP [Peptide P33_mono], for which the “ability to induce calcium flux, P33-derived peptides” value in assay [1] is listed as “similarly potent”. Further, the “ability to induce calcium flux, P33 monomer, dimer and derivatives compared” value in assay [2] was “equally potent”. With “SMVHRWSRAVLFPAAHRP [Peptide P33_V, SMVHRWSRAVLFPAAHRP]”, the EC50 in assay [2] was no less than 1000 nM. As for “TIPMFVPESTS (listed as Homo sapiens) [P58—6]”, the “calcium flux, P58 and derivatives” value in assay [1] is given as “did not induce calcium flux”. The same measure, in the same setting: the value for “TIPMFVPESTSKLQ (listed as Homo sapiens) [P58—7]” was “did not induce calcium flux”. With “TIPMFVPESTSTLQ (listed as Homo sapiens) [P58—12]”, in assay [1], the “calcium flux, P58 and derivatives” value is reported as “did not induce calcium flux”.

With “TIPMFVPESTSTLQKFTSWFM-amide (TIPMFVPESTSTLQKFTSWFM-NH2; listed as Homo sapiens) [P58—10]”, the “calcium flux, P58 and derivatives” value in assay [1] is recorded as “elicited calcium flux”. On to “WSRAVLFPAAHRP (listed as Homo sapiens) [P33—10]”, for which the “ability to induce calcium flux, P33-derived peptides” value in assay [1] was “failed to induce calcium flux”. In addition, in assay [2], the “ability to induce calcium flux, P33 monomer, dimer and derivatives compared” value is “induced calcium flux, albeit at a somewhat lower degree compared to P33_V”.

The record behind these values is patent publication US8349801B2, “Peptide ligands for G-protein coupled receptors” (priority 2006, dated 2013).
